Experimental data reported in PMC6118821.

Biological target: Nucleosome with symmetrical linkers of 14 base pairs (nucleosome of the 2Chd1:1Nucleosome complex) (Xenopus laevis)
Assay: cryo-EM structure; 2:1 complex of ScChd1(1-1305Δ57–88) and a nucleosome with symmetrical 14 bp linkers, ADP-BeFx; envelope at 10-11 Å, two Chd1 and a nucleosome rigid-body docked

Q: “ScChd1(1-1305Δ57–88) (from UniProt P32657 1-1305) (enzyme)” was tested. Which stoichiometry N did it give?
A: 2
